assay: soluble on expression in E. coli; label from the status in PepcDB or PDB records

Soluble on expression in E. coli, not soluble:
MLRTYTVLLLIAHAHVQSHFYYPCSARIFWKIHALINNTDGFVTREVKLGYFIGYKEHRSSAERKANAHGFHGFFFSEITHTFSEMIESLEHANTGAFDDIRTDSETHFFDLDDAERMIERDSIERTNNLLENSRKFKNVRDETHRGKTRRGETHRGETHRGETHRDETHRGETHRDETHRGETHRGETHRGETHRGETHLDETHRGETHRGDTHRGETHRGETHRDDTFRGETLRGETHLDETHRGETHRDETHRGETHRDETHRDETHRDETHRGETHRGETHRGETHRDDTFRGETFRGETHRDETHRGETHRDETHRGETHRGETHRGETHRGETHRGETHRGETHRGETHRGETHRDETFRGETHRGETHRGETHRDDTHRGETHRGETHRGETHRGETHRGETHRGETHRGETHRGETHRGETHRGETHRGETHCDDTHRGETRRAETHRGETHRGETHRDETHRDDTHRGETHRGETHRGETHRGETHRGETHRDETHRGETHRGDTHRGETHRGETHRGETHRGETHRGETHRGETHRGETHRGETHRGETHRDDTHRGETRRAETHRGETHRGETHRDETHRGETHRGETHRGETHRGETHRGETHRDETHRDDTFRGETLRGETHRDETHRGETHRDDTFRGETLRGETHRDETHRGETHRDETHRGETHRGETHRGETHRGETHRGETHRGETHRGETLRGETRCDDTQRGETRRAETHRGETLRGETHRDESHRGETHRGETHRGETHRGETHRGETHRDETHRDDTFRGETLRGETHRDETHRGETHRDDTFRGETLRGETHLDETHRGETHRDETHRGETHRGETHRGETHRDETHRGETHRGETHRGETHRGETHRAETFRGETHRAETHRGETNRGETHRGETHRGETHRGETNRGETHRGETHRGETHRGDTHRAETHRDETHRGETNRDETHRGETHRGETHRGDTNRGETHRGETFRGETHRGETHRGETHRGETHRGETHRGETHRGETHRGETHRDDTFRGETHRGETHCGETHRGETHRGETLRGETLRGETHRDETHRGETLRDETHRGETLRGETHRGETLRGETHRGETHRDDTFRGETLRGETHLDETHRGETHRDETHRGETHRGETHRGETHRGETHRGETHRGETHRGETHRDETHRDDTFRGETLRGETLRDETHRGETHRDDTFRGETHRDETHRGETLRGETHRDETHRDETHRDDTHRGETLRGETHLDETHRGETHRDETHRGETHLDETHRGETHRDETHRGETHRDETHRGETHRGETHVWKARENSGMF, MLSLKLVSQLFKQSLASGNMAIVNTAGLKYFAPPIKYQNVEQPERPKLRVIERQPQLPPNIRPPKMQKRLRYMRGPEMVHNTLLHKQYAIVATGGGRLRWGHYEMMRLTIGRKMNVNTMFATWRVPAPWQPITKKGQGQRMGGGKGAIDHYVTPIKAGRVIVEIAGKCEFVEVKQFLQQVANQLPFQATVVSQEMLDEQRVAEEEQTRQNENPFTMKYVIQNNLSGCHRWLSPVDHKWFGKHLLEHHHHHH, MLSPEQDLNRHADPFPFNEEPSSQDLDSLRDLVTEAETLQDMVTGGLSIDAILNVLDATGEDETIWPVEKTPPDILHLLSPEYAPETAHNTVLPDLTRKEHRIIGIDSHYRINPAQHGEIYHDKQ, MLSPITLEALHILDAIERRGSFAAAANELNRAPSSLSYQIQKLEQDLDLMIFDRSGHRANFTEAGKLILERGRAILAATEKLVNDATLLANGWELDITIALDGIVPAANLFPMVEALGNISKTRVRIQDEILAGCWEALATGRADLLICPRIEALPQDVKAETIGTMKMIWVAAPTHYVHRRSGEFNEEAREKYRAIAIADTAREQPAMSVNILQRQPRLTVSNLDAKCKALVAGLGIGTLPLQVAQPYIDKGELKAIHGSEDLEMDIVLAWRRNQMGEAKSWCIQYLKKNWRWE, MLTEQQFRDEIRGFVDKMNENNFHWQLKEIGKYARETHLKTLSDGRVITSETHILYNSTYQVPTIWFNFFENNGSPLPFRTVIRDVLNISETEESEASIRSRISHYEHPFMGVLYYNIHPCNTSNIMKELNTDRSYLMSWFSVYGQQIGLKLPDRVL, MLTFKYLLASLLILLVSSQTWGQQSYGNSNQGYGQQQQGFSGFGQGSATNRQGMTGQGLLESSYQQGYGQNQGSMQGYSQQGYGGNSQQDYGYSQSQGSGMGVQGYGGSSQSYGQQAFAQQQRPQQGFQSNGFSGQQASGSMNSFGGQGGYGQNQNGFGGQSGFSGQSGWGSNSLSSANSNGNNNQGSSSGYQNNQGRHQGQGGGHSSSSNSVMSNNGYSSNSGYGNNNGPTPSFLNNVSSSAAQDYYNIVNNKSLTTNQINEQASNWASANSVQAQYIQYETNRSAIHTQATQNVSDIINNLATVQASIEGIQSNTSSSENDRQSAFQALQQAHPMEYSVLTSLQNQHEQTQYARMGSNGNSNSNYGNSNFNSNYGNNGYNHNGNNYFESTTATSAATKKKTTKATSG, MLTPMFCLAHISDMHLSPLPKPSFFELFGKRLTGYLNWQKKRKGQMATNTLETLIEALKKKNPDHLVISGDLVNLALDKEFEQARNWLLNQGQPQNISLTFGNHDAYVRGAFQKACTLFQPWITGDFPQKNAPPFPYIRIRKNVAIIGASSAIATPPFQASGYFGKMQAQALSQLLNEAARRNLFRVIMIHHPPFHHATSWHKKLWGIERFLEVIKHHGCELILHGHTHLPTLNIIKGKMGKIPIVGVASAAQAFGDTPPPAGFNFFSIEQFNQQWHCQLQRYSLINQNNEVACTETIDLLEHHHHHH, MLTRTDGKGSKVLLIAAMDTKGTEARYIESWLAKAGFTTLIMDMGIRGKRPGPVAVTRDEVLRAAGKTWDDIQNVTSEGDAVDIMISGGVKCALALYKADLIQGVISLGGTMGTTLGTGVMRAFPIGFPKVMISTIAAKDTEAFIGNMDIFMLNSVSDLAGLNRITRKVLRNGALAIAGLVREREFHDEFSRPLAVLTTLGTTEATAARMRIHFEAWGYESVTFHTTGTGGQAMERMVNFEPVSAVVDLSLHELIDHHFGGAFDPGPERGRAALQKGIPTVIVPGNIDFLVTGPMAQAQIYFPGRRGHKHNANITCVRTSLEEIQRIAEIMAGYCNESTGPVAVLVPMKGFSCLDHEDGPQPDPEGPRVFAETFARALTRTIHFETVPLHINDEAFSEVIVGALQKIGGLRKIEADRLPSRQPATWSPYSSVHTLDRFSGNQHTTTETTGDALAALEHHHHHH, MLTVTFTVSNTGDRAGAAVPQVYPGFPNTTIDRCVRELKAFRRVELEPGQRQTVTVALTRRDLSYWDILPHPLRSYAVGSILEHHHHHH, MLVCNPYEVVIHGTTSSGKIFRPSDWAERLCGILSSFTKDHRLSYSKWVRPILVDNIRCVAVDKKLETDNPQMFRFLMDFAADNDLRVIDCKALLEEREQGGQNNPADEHVMLAQAIEEKHAAEKAQEQTASGASYVLREIGADDTATAFAALSVLRSALTDINRFTEQINKVQRPQGYRLLGIFEEGKHNAVAVCGFREACTLASGRHIHIDDIVTLPQSRRKGYASRLLEEVRKIGAETGVTKIHLNVHVNHDRADAHRLYFKNGFEICAYHFRCDPK, MLVGHARKDITPTEPFYLLGYKTELRNQPAKGIHDHIYINALLFYDDKGNECFLATGDLLELEDIVAADIRQKISRKYGIAMDHVIIGVTHDHHSVRDYHRTWEFGKFSQTYYDFFVDSFVQAFEDCRETLTDVTVQYGQQEIFGFYSNRNHANKPSDNAVSVIKFIADGHAVAGIVNMAVHSTVLGPDNQYLTADLAGNTCTKLAKEWGFFPLMLIGCAADSSNRYERQGRDFAELERASSGLAVAISKIQTPKRLCLGKIQTLTLSHEVVNDKPIYDRKLRTMINDLRSGVIKAIGSQSVEAIVEKCEDQLNKPQFHDLLSLQLLDIGELRLFVFPGELASAGAKKLTSFDRLEHHHHHH, MLYDLAKQRKTVRKFKEEKPSIEKLMYCLKVANEAPSGMNAQPWRFLVVKDEETKRQIRETCEKAEKDFYENVRGKLKEWLNENSFNWKKPFLEEAPYLLLVFSKKDAPYSRESVWLAIGYLLLALEEQGLGTVPYTPPNPNELTKIVNTPSDLRFEVILPVGYPDDPKPKYPREEMKVSFNHF, MMDAKALWQRYQDWLYYHEGLGLYLDISRMRFDDSFVESLQSKFDKAFADMAALEKGAIANPDENRMVGHYWLRNPDLAPSPELTQEIVQTLEQIEAFADQVHTGAVHPPKESRFTDIISIGIGGSALGPQFVAEALSPDSPPLNIHFIDNTDPRGIDRVLSQINNLASTLVLVISKSGGTPEPRNGMIEVKKAYAAKNLDFSKYAVAVTGPDSNLDKVAKSEGWLARFSMYDWVGGRTSEMSAVGLVPAALQGIDIRAMLEGAKEMDDATRVADLKNNPAALLALAWYYSGKGKGGKDMVVLPYKDSLLLFSRYLQQLVMESLGKEKDLDGKIVYQGIAVYGNKGSTDQHAYVQQLREGVPNFFATLIEVLEDRQRKSPEIDPGVTSGDYLCGFLLGTRQALYENNRDSITVTIHQVNPRTVGALIALYERAVGLYASLVNINAYHQPGVEAGKKAAAVILDLQQKVMTVLQTERKALSISEIADKAGASEQIEAIYKILRHLHTNNRGVVLTGDLAKPGSLTVSLS, MMEDNKMTESEMKFRDTTIRNFFDKEDRLKSIPGQKKKKLVLLEHLISKLNAENQYTEKEINTFIKQYHDDFCTIRREFIVQGFMNREDNMYCINGREVWTKWEELK

Soluble on expression in E. coli, soluble:
MLSRKIIEESDIYLATSTRDPELFPLVIDHGEGVWIYDVDGNKYLDFTSGIGVNNLGWPSHPEVIKIGIEQMQKLAHAAANDFYNIPQLELAKKLVTYSPGNFQKKVFFSNSGTEAIEASIKVVKNTGRKYIIAFLGGFHGRTFGSISLTASKAVQRSIVGPFMPGVIHVPYPNPYRNPWHINGYENPSELVNRVIEFIEDYIFVNLVPPEEVAGIFFEPIQGEGGYVIPPKNFFAELQKLAKKYGILLVDDEVQMGLGRTGKLFAIENFNTVPDVITLAKALGGGIMPIGATIFRKDLDFKPGMHSNTFGGNALACAIGSKVIDIVKDLLPHVNEIGKIFAEELQGLADDVRGIGLAWGLEYNEKKVRDRIIGESFKRGLLLLPAGRSAIRVIPPLVISEEEAKQGLDILKKVIKVVK, MLTDPIADMLTRIRNATRVYKESTDVPASRFKEEILRILAREGFIKGYERVDVDGKPYLRVYLKYGPRRQGPDPRPEQVIHHIRRISKPGRRVYVGVKEIPRVRRGLGIAILSTSKGVLTDREARKLGVGGELICEVW, MLTIKNLHASVHNNQILRGVNLTINAGEVHAIMGPNGSGKSTLASVLAGREDYAIVDGDVRYFDEDLFELSPEDRAAKGLFLAFQYPVEIPGVNNLYFLKTAVNSIRKTRGEAPFDAIDLMGLVKEKLALVDMDDKFLKRSVNEGFSGGEKKRNEILQMLMLDPRLAILDETDSGLDIDALQTVAKGVNSLRNKERAILLVTHYQRLLDYIKPDFVHVLVNGRIVLSGDQSLALELEKKGYGWL, MLTVALLALLCASASGNAIQARSSSYSGEYGSGGGKRFSHSGNQLDGPITALRVRVNTYYIVGLQVRYGKVWSDYVGGRNGDLEEIFLHPGESVIQVSGKYKWYLKKLVFVTDKGRYLSFGKDSGTSFNAVPLHPNTVLRFISGRSGSLIDAIGLHWDVYPTSCSRC, MLYNMDERFEIKDIVAREVIDSRGNPTVEVEVITKGNGYGSAIVPSGASTGTHEALELRDKEKRFGGKGVLMAVENVNSIIRPEILGYDARMQREIDTIMIELDGTPNKSRLGANAILAVSLAVAKAAAATAKIPLYKYLGGFNSYVMPVPMMNVINGGKHAGNDLDLQEFMIMPVGATSISEAVRMGSEVYHVLKNVILEKYGKNAVNVGDEGGFAPPLKTSREALDLLTESVKKAGYEDEVVFALDAAASEFYKDGYYYVEGKKLTREELLDYYKALVDEYPIVSIEDPFHEEDFEGFAMITKELDIQIVGDDLFVTNVERLRKGIEMKAANALLLKVNQIGTLSEAVDAAQLAFRNGYGVVVSHRSGETEDTTIADLSVALNSGQIKTGAPARGERTAKYNQLIRIEQELGLSKYAGRNFRCPF
